# From PMC9277888, “The testis-specific E3 ubiquitin ligase RNF133 is required for fecundity in mice” (BMC Biology, 2022)
# Like-named read-outs stand apart in the source and are kept apart here.
# B1: human RNF133-FLAG (RING finger protein 133) (enzyme, UniProt Q8WVZ7 1-376, looked up)
# chain: MHLLKVGTWRNNTASSWLMKFSVLWLVSQNCCRASVVWMAYMNISFHVGNHVLSELGETGVFGRSSTLKRVAGVIVPPEGKIQNACNPNTIFSRSKYSETWLALIERGGCTFTQKIKVATEKGASGVIIYNVPGTGNQVFPMFHQAFEDVVVVMIGNLKGTEIFHLIKKGVLITAVVEVGRKHIIWMNHYLVSFVIVTTATLAYFIFYHIHRLCLARIQNRRWQRLTTDLQNTFGQLQLRVVKEGDEEINPNGDSCVICFERYKPNDIVRILTCKHFFHKNCIDPWILPHGTCPICKCDILKVLGIQVVVENGTEPLQVLMSNELPETLSPSEEETNNEVSPAGTSDKVIHVEENPTSQNNDIQPHSVVEDVHPSP
# notes: also called human RNF133-WT; RNF133 wild-type; source: HEK293 cells, transfected (pCAG1.1, Lipofectamine 3000), in lysate; not shown: FLAG, C-terminal, kept
# B2: mouse RNF133-FLAG (RING finger protein 133) (enzyme, UniProt Q14B02 1-382, looked up)
# chain: MNPLQTSTWQNQAPSFWLLRFSFIWLVSQKCCTASAVWTAYMNISFHVGNRMLSELGETGVFGRSSILKRVAGVVVPPEGKIQNACDPNTTFILPRNKEPWIALIERGGCAFTQKIKVASEHGARGVIIYNFPGTGNQVFPMSHQAFEDIVVVMIGNIKGMEILHLIRKGVHVTVMVEVGRKHVIWLNHYFVSFMIVTTATLAYFTFYHIRRLWVARIENRRWKRLTRELKKAFGQLQVRVLKEGDEEVNPNADSCVICFEAYKPNEIVRILTCKHFFHKNCIDPWILAHGTCPMCKCDILKALGIQMDIEDGTDSLQVLMSNELPGTLSPVEEETNYELPPARTSSKVTHVQEHPTSSANAGSQPPEAEETSHPSHGQQVL
# notes: also called mouse RNF133-WT; pCAG-mouseRnf133; source: HEK293 cells, transfected (pCAG1.1, Lipofectamine 3000), in lysate; not shown: FLAG, C-terminal, kept
# Assays:
# [1] = molecular target: T1, human HA-UBE2J1 (human, UniProt Q9Y385 1-318); experiment: co-IP; HEK293 cells co-transfected with FLAG-tagged E3 and HA-tagged E2; lysed by sonication in Pierce IP buffer (25 mM Tris-HCl pH 7.4, 150 mM NaCl, 1 mM EDTA, 1% NP-40, 5% glycerol); anti-HA magnetic beads, 4 C, 1 h; washed with IP buffer with 2 mM DTT; immunoblot with anti-FLAG; band intensities by ImageJ (IP lane to input lane)
# T1 construct: E2 ubiquitin-conjugating enzyme UBE2J1, human, full-length open reading frame; also called pCAG-humanUBE2J1; source: HEK293 cells, transfected (pCAG1.1, Lipofectamine 3000), in lysate; not shown: HA, N-terminal, kept
# T1 sequence (looked up): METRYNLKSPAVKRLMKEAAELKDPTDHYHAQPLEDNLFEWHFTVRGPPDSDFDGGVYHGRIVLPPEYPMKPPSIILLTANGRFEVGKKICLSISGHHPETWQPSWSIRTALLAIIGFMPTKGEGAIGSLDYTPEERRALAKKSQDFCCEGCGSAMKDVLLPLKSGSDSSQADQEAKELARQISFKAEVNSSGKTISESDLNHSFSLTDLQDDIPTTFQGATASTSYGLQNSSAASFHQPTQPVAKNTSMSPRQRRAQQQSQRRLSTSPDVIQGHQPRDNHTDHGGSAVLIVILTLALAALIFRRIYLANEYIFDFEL
# [2] = molecular target: T2, mouse HA-UBE2J1 (mouse, UniProt Q9JJZ4 1-318); experiment: as above; settings: partners not purified
# T2 construct: E2 ubiquitin-conjugating enzyme UBE2J1, mouse, full-length open reading frame; also called pCAG-mouseUbe2J1; source: HEK293 cells, transfected (pCAG1.1, Lipofectamine 3000), in lysate; not shown: HA, N-terminal, kept
# T2 sequence (looked up): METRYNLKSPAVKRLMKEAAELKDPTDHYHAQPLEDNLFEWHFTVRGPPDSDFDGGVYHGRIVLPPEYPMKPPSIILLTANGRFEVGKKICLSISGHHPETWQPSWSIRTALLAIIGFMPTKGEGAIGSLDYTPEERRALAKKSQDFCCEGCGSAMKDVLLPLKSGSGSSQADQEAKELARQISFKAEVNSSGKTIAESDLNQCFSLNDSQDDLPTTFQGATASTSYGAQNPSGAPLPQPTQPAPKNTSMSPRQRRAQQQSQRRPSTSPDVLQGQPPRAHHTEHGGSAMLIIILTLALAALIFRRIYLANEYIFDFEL
molecule,measurement,setting,value
human RNF133-mutant-FLAG (RING finger domain deleted) (from UniProt Q8WVZ7 1-376) (enzyme),IP:input ratio (band intensity),[1],0.24
B1,IP:input ratio (band intensity),[1]; partners not purified,1.74
B2,IP:input ratio (band intensity),[2],3.95
